Test results from patent publication US20190071490A1 (BETH ISRAEL DEACONESS MEDICAL CENTER, published 2019).
Positions count from the first letter of the chain named. Names may count otherwise. Ends that are not written are not given here.

T1: human α-CGRP 1-37 (WT) (human, C-terminal amide; N-terminal biotin when captured on the SA chip; 125I-labelled in the radioligand assay)
T1 construct: also called α-human
T1 peptide: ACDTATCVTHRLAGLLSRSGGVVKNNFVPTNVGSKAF

B1: Human adrenomedullin (1-52) (peptide)
peptide: YRQSMNNFQGLRSFGCRFGTCTVQKLAHQIYQFTDKDKDNVAPRSKISPQGY-NH2
modifications: ends and bridges not checked
B2: G1 variant M83 Fab (Fab, V domains shown)
VH: EVQLVESGGGLVQPGGSLRLSCAASGFTFSNYWISWVRQAPGKGLEWVAEIRSKSDNMATFYAEAVKGRFTISRDNAKNSLYLQMNSLRAEDTAVYYCTVYFDYGLAIQNYWGQGTLVTVSS
VL: EIVLTQSPATLSLSPGERATLSCKASKNVVTYVSWYQQKPGQAPRLLIYGHSNRYTGIPARFSGSGSGTDFTLTISSLEPEDFAVYYCSQSYNYPYTFGQGTKLEIK
notes: Fab; constant domains as m1
B3: G1 variant M84 Fab (Fab, V domains shown)
VH: B2 VH with K54N, M58S, F61H
VL: B2 VL
notes: Fab; constant domains as m1
B4: rat α-CGRP (1-37) (peptide)
peptide: SCNTATCVTHRLAGLLSRSGGVVKDNFVPTNVGSEAF-NH2
modifications: ends and bridges not checked; also: N-terminal biotin when captured on the SA chip
notes: also called rat α (1-37); α-rat
B5: human α-CGRP 1-36-COOH (peptide)
peptide: ACDTATCVTHRLAGLLSRSGGVVKNNFVPTNVGSKA-OH
modifications: ends and bridges not checked
notes: also called 1-36 (not amidated at the C-terminus)
B6: human α-CGRP 19-37-COOH (peptide)
peptide: SGGVVKNNFVPTNVGSKAF-OH
notes: also called 19-37 (not amidated at the C-terminus)
B7: human α-CGRP 19-36 (peptide)
peptide: SGGVVKNNFVPTNVGSKA-OH
notes: also called 19-36-COOH; peptide fragment 19-36

How the values were obtained:
antibody G1 Fab fragment [1] = assay: Biacore competition: G1 Fab (50 nM) pre-incubated with competing peptide, flowed over human α-CGRP on SA chip
Description: (§1) Y axis represents percentage of binding blocked by the presence of the competing peptide compared with the binding in the absence of the competing peptide.
(§2) All these peptides are amidated at the C-terminus.

human α-CGRP 1-37 (WT) = target: T1, human α-CGRP 1-37 (WT); assay: Biacore, 37°C, Fab over CGRP on SA chip
In short: (§3)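 Fab analyte flowed over N-biotinylated CGRP captured at low density on a streptavidin chip in HBS-EP (pH 7.4), 1-min injections at 100 μL/min, at least 10 min dissociation.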

rat α-CGRP (1-37) = target: B4; assay: Biacore, 37°C, Fab over CGRP on SA chip
In short: as §3

antibody G1 Fab fragment [2] = assay: Biacore competition: G1 Fab (50 nM) pre-incubated 1 h with 10 µM competing peptide, then flowed over N-biotinylated human α-CGRP on SA chip; percent of binding to chip-bound human α-CGRP blocked
Description: as §1, §2
Target sequence in this assay (VH, as listed by the source, chain 1 of 2): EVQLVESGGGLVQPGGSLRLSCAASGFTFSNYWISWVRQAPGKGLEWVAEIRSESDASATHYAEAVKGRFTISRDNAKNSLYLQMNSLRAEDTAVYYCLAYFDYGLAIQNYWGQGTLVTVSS
Target sequence in this assay (VL, as listed by the source, chain 2 of 2): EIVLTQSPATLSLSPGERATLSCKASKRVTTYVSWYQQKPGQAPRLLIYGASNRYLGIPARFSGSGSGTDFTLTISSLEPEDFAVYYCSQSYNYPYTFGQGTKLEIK

antibody G1 Fab fragment [3] = assay: Biacore competition: 50 nM G1 Fab with 10 µM peptide over human α-CGRP on chip
Description: as §1, §2
Target sequence in this assay (VH, as listed by the source, chain 1 of 2): as the sequence (VH, as listed by the source, chain 1 of 2) above
Target sequence in this assay (VL, as listed by the source, chain 2 of 2): as the sequence (VL, as listed by the source, chain 2 of 2) above

| binding result (antibody G1 Fab fragment [1]) | % Binding Blocked (antibody G1 Fab fragment [2]) [%] | percentage of binding blocked (antibody G1 Fab fragment [3]) [%] | Binder | other results |
| --- | --- | --- | --- | --- |
| no binding (tested: 10 µM) |  |  | B1 |  |
| no binding (tested: 10 µM) |  |  | ACDTATCVTHRLA-OH (ends and bridges not checked) [human α-CGRP 1-13-COOH] |  |
|  |  |  | B2 | Kd (human α-CGRP 1-37 (WT)): 5.83 nM; koff (human α-CGRP 1-37 (WT)): 0.000933 s⁻¹; binding result (rat α-CGRP (1-37)): no binding |
|  |  |  | B3 | Kd (human α-CGRP 1-37 (WT)): 6.75 nM; koff (human α-CGRP 1-37 (WT)): 0.00108 s⁻¹; Kd (rat α-CGRP (1-37)): 978 nM; koff (rat α-CGRP (1-37)): 0.0176 s⁻¹ |
|  | 100 | 100 | B4 |  |
| no binding (tested: 10 µM) |  |  | CGNLSTCMLGTYTQDFNKFHTFPQTAIGVGAP-NH2 (ends and bridges not checked) [Human calcitonin (1-32)] |  |
|  | 40.6 | ~40 | B5 |  |
| no binding (tested: 10 µM) |  |  | ACDTATCVTHRLAGLLSRS-OH (ends and bridges not checked) [human α-CGRP 1-19-COOH] |  |
|  | 83.3 |  | B6 |  |
|  | 100 | 100 | SGGVVKNNFVPTNVGSAAF-NH2 (also: N-terminal biotin when on the chip, the entry already carries K35A) [human α-CGRP K35A (19-37)] |  |
|  | 100 | 100 | SGGVVKNNFVPTNVGSEAF-NH2 (also: N-terminal biotin when on the chip, the entry already carries K35E) [human α-CGRP K35E (19-37)] |  |
|  | 100 | 100 | SGGVVKNNFVPTNVGSMAF-NH2 (also: N-terminal biotin when on the chip, the entry already carries K35M) [human α-CGRP K35M (19-37)] |  |
|  | 100 | 100 | SGGVVKNNFVATNVGSKAF-NH2 (the entry already carries P29A) [human α-CGRP P29A (19-37)] |  |
|  | 91.7 |  | SGGVVKNNFVPTNVGSKAA-NH2 (the entry already carries F37A) [human α-CGRP F37A (19-37)] |  |
| no binding (tested: 10 µM) | 0.6 |  | B7 |  |
| no binding (tested: 10 µM) |  |  | KCNTATCATQRLANFLVHSSNNFGAILSSTNVGSNTY-NH2 (ends and bridges not checked) [Human amylin (1-37)] |  |
